Paper PMC3071548 (Molecular microbiology, 2010)

Biological target: the molecule itself
Experiment: SEC

B1: YgbT, purified full-length protein (natural protein, E. coli, UniProt Q46896 1-305, looked up)
chain: MTWLPLNPIPLKDRVSMIFLQYGQIDVIDGAFVLIDKTGIRTHIPVGSVACIMLEPGTRVSHAAVRLAAQVGTLLVWVGEAGVRVYASGQPGGARSDKLLYQAKLALDEDLRLKVVRKMFELRFGEPAPARRSVEQLRGIEGSRVRATYALLAKQYGVTWNGRRYDPKDWEKGDTINQCISAATSCLYGVTEAAILAAGYAPAIGFVHTGKPLSFVYDIADIIKFDTVVPKAFEIARRNPGEPDREVRLACRDIFRSSKTLAKLIPLIEDVLAAGEIQPPAPPEDAQPVAIPLPVSLGDAGHRSS
  stoichiometry N: 2
